Target: Recombinant murine serum amyloid A isoform 1.1 (murine)
Assay: cross-linking; SAA-POPC complexes hydrolyzed by sPLA2-III (0.5 mg/ml protein) with glutaraldehyde 0.01-0.08%, 30 min at 24°C, 50 mM sodium phosphate, 150 mM NaCl, pH 7.5; quenched with 100 mM Tris; SDS PAGE

## Recombinant murine serum amyloid A isoform 1.1 (natural protein)
  stoichiometry N: 6
